A short description of the data set: label from the status in PepcDB records.
Take “MSNEFEPYNKEIKKIEFTTWKYQASKDAEHSPSDEEELINELEVVKQEAFQKGYADGFQQAQEEINAIKAELSKWLDLIQKPVQILDEQLTQEIIQTIIWLSQHCVAVELSVNPDKLNDLLNKIKGELPSLTGKKSISMHPDDVRWIKEVFSESNIPGLHELLVADPALNRGDFYLQGEHSELDGRIQTRFTTLFNEYINKENIIP”: the protein production result is on record as “failed”.

Turning to “MSDLKSLATKFASDHESGKLLVLPTVWDTWSAGLVEEAGFSGLTIGSHPVADATGSSDGENMNFADYMAVVKKITSAVSIPVSVDVESGYGLSPADLIAQILEAGAVGINVEDVVHSEGKRVREAQEHADYIAAARQAADVAGVDVVINGRTDAVKLGADVFEDPMVEAIKRIKLMEQAGARSVYPVGLSTAEQVERLVDAVSVPVNITAHPVDGHGAGDLATLAGLGVRRVTFGPLWQKWLAATSAQQLKGWA”, the protein production result is given as “not failed”.

Consider “MRITSTANPRIKELARLLERKHRDSQRRFLIEGAREIERALQAGIELEQALVWEGGLNPEEQQVYAALGRVGRLALLEVSEAVLKKLSVRDNPAGLIALARMPERTLEEYRPSPDALILVAVGLEKPGNLGAVLRSADAAGAEAVLVAGGVDLYSPQVIRNSTGVVFSLRTLAASESEVLDWIKQHNLPLVATTPHAEALYWEANLRPPVAIAVGPEHEGLRAAWLEAAQTQVRIPMQGQADSLNVSVSAALLLYEALRQRLLRDRLTKTHSTL”, for which the protein production entry is recorded as “not failed”.

As to “MKKWRFLGIDDSFDDRKCCVVGCVTCGGYVEGFLYTEIDIDGLDATDKLISMVRRSKFREQIKCIFLPGITLGGFNLVDIQRVYRETKIPVVVVMRRKPDMEEFDSAMRNLENYELRRKIVEVAGEIHRIGDIYIQTAGLTPSEAEKLVKASLIKGNMPEPVRISHLVASAIIHGESRGKA”, the protein production result is “not failed”.

Turning to “MGHHHHHHSHMSGEKTVVCKHWLRGLCKKGDQCEFLHEYDMTKMSECYFYSKFGECSNKECPFLHIDPESKI”, the protein production entry is given as “not failed”.

Turning to “MMTKYGVVGTGYFGAELARFMSKVEGAKITAIYDPVNAAPIAKELNCVATATMEALCSHPDVDCVIIASPNYLHKAPVIAAAKAGKHVFCEKPIALNYQDCKDMVDACKEAGVTFMAGHVMNFFHGVRHAKALIKAGEIGEVTQVHTKRNGFEDVQDEISWKKIRAKSGGHLYHHIHELDCTLFIMDETPSLVSMAAGNVAHKGEKFGDEDDVVLITLEFESGRFATLQWGSSFHYPEHYVLIEGTTGAILIDMQNTAGYLIKAGKKTHFLVHESQAEDDDRRNGNISSEMDGAIAYGKPGKRTPMWLSSIMKLEMQYLHDVINGLEPGEEFAKLLTGEALEHHHHHH”, the protein production result is listed as “failed”.

With “HARPAGQLKVHSMPGVGQHYVIDAIARYRRNHPDVAFDLTMTHRVPDLLEEGFDVSIVLASELADSGFVSQRLGITYSIVCASPEYVKTFGMAHKPADLLNHACLRLVSPVFP”, the protein production entry is “failed”.

“MPRWLIQHSPNTLTPEEKSHLAQQITQAYVGFGLPAFYVQVHFIEQPAGTSFIGGEQHPNFVALTIYHLARTMTSDEQRQGFLKRIDAFLTPMFEPKGIDWEYFVTEAPRDLWKINGLAPPAAGSEEEKVWVRENRPVRF”: the protein production result is reported as “not failed”.

Regarding “MPTPAPSADSTAERRHREKDTPLHRAARRGDADAVRELLARGAEIDALDDKGRTPYRLALDAGHPEIARWLAAAGADRHRSAAGTPGESEKRPRHPPSRLSSKDGIDGYPGWPALTVAAWRGHASTVETLLARGADVAARAPDGHTPLTRAAWNGHAGIVKILLAHGAEADVATPDGRTALMWAAREGHGEVVAVLAAAGARLDATDGDGNTALSWAAQRGKATTVRVLCSLGAATGVARKDGRTPIMLAALGGHPESVEVLLAASADPNATDADGHTALWHAVDGGHSGIVEILLAHGASFDRDRAPGHDALARAAWKGDEKTAGLLLAYGARVDAPSGDGNTALAVAAGRGHAGVIRLLLRKGANPDRRNRRNMTALMLAAQAGHSETVAALLEAGADPTLRNRHRHTAVSLARAGGHEDCVKILEKHRVGRRTLLGFLW”, the protein production entry is listed as “failed”.

With “MNYPLTLEMDLENLEDLFWELDRLDNYNDTSLVENHLCPATEGPLMASFKAVFVPVAYSLIFLLGVIGNVLVLVILERHRQTRSSTETFLFHLAVADLLLVFILPFAVAEGSVGWVLGTFLCKTVIALHKVNFYCSSLLLACIAVDRYLAIVHAVHAYRHRRLLSIHITCGTIWLVGFLLALPEILFAKVSQGHHNNSLPRCTFSQENQAETHAWFTSRFLYHVAGFLLPMLVMGWCYVGVVHRLRQAQRRPQRQKAVRVAILVTSIFFLCWSPYHIVIFLDTLARLKAVDNTCKLNGSLPVAITMCEFLGLAHCCLNPMLYTFAGVKFRSDLSRLLTKLGCTGPASLCQLFPSWRRSSLSESENATSLTTF”, the protein production entry is reported as “failed”.

With “MMLSATQPLSEKLPAHGCRHVAIIMDGNGRWAKKQGKIRAFGHKAGAKSVRRAVSFAANNGIEALTLYAFSSENWNRPAQEVSALMELFVWALDSEVKSLHRHNVRLRIIGDTSRFNSRLQERIRKSEALTAGNTGLTLNIAANYGGRWDIVQGVRQLAEKVQQGNLQPDQIDEEMLNQHVCMHELAPVDLVIRTGGEHRISNFLLWQIAYAELYFTDVLWPDFDEQDFEGALNAFANRERRFGGTEPGDETA”, the protein production result is reported as “not failed”.

As for “MKKAGILLLSLLMPFSTAFAEASKPLSVELLWQLKRIGSPVVSSTGEHIIAPVTEYDLKEDKGSTQLWRFDVEGKNNRAITAKGLKVSEPVFSPDGKTLAFISERNDDDAGQIYLLPMDGPGEAAKLTDIPTGVNGIKWVGKHLYFISNIFPEQNWEQMKAQLKTDKDNKVSARQWNALPYSQFDHWLDERRQAHVFRIPATGGTVEAVTQPLGHELPRSSQSSESYDISPDERLIAFSAYGSDNRVDPKLDLFLATIGGNKAENITPENPAPDLNPSFSPNGKTLAFTRQKIPGFYADTARLMLLDVSSRKLTTLTPDWDRSVSEFEWTPDSKGFYASIEDAATNRIYHIDAKSGKAKAITQATDFSQPAIAKDGQLIATNQSFLYPARLVSINPRNGKTERLEQFNDDILKDVDLGTYESVTYKGYQGQDIQMWVHYPPGFDRSKKYPLFMLIHGGPHNAISDGFHYRWNAQTFASWGYVTAWPNFHGSSGFGQDFADAINPDWKNKSLEDVLKATDWFKQQSWIDSDRMVAGGASYGGYLTSIILGQPHPFKALLIHAAVYDMYAQMSADFAVHSTRFGNYWDNPELYKAISPHYFAANFNTPTLVSHGQLDYRVPVGQGFELFRTLQTRNVESRMIYFPDENHWIVKPNNSIYWYNQVKDWMAHYAKPGAQ”, the protein production entry was “failed”.

With “MENRSHALLAGLFTLALLVAAALVAIWVGRDRAALKPYVIVSATSVSGLSAQSTVRYQGVPVGKVQSLGFNPDKPAQVRISIGVAPDTPITESTWAELGVQGVTGLGNIELRDDGTSTRRLASSAAMPATIPLRPGFFQRFEQRGGEILHNVEQVSARLERLLSNENVQATTATLQNIAAITTDLRQAATELRPALAQVPPLVDSLQAMSRNTGQAAQEIAGLAQAARQALARLDAPDGPLAMATRSMRDIAWAAARLDAQTLPAVSGMASSIDSAARSATTTLRRVGDTPQSLLFGPPPTVPGPGEPGFAGFGR”, the protein production entry was “failed”.

As for “MLQRTLSSIQIIGGVTQALFILSICLASINPPTEFTMRRTMAMSMRKYSSHSTPRMARIPTTFVVIVLRPTILSGSVGPVITLYIAIKAVPRSTQTPATKTFS”, the protein production entry was “failed”.

With “MTSTSITAVEYQSKRLESRLLKETREYVIALPEGYAQSLEAYPVVYLLDGEDQFDHMASLLQFLSQGTMPQIPKVIIVGIHNTNRMRDYTPTHTLVLPSGNKGNPQYQHTGGAGRFLDFIEKELAPSIESQLRTNGINVLVGHSFGGLVAMEALRTDRPLFSAYLALDTSLWFDSPHYLTLLEERVVKGDFKQKQLFMAIANNPLSPGFGVSSYHKDLNLAFADKLTKLAPKGLGFMAKYYPEETHQSVSHIGLYDGIRHLFKDFAIDIYSDSFSKQQVIDQYGVLSERFGHKVTPSQQYLEQLIQYSDRQQLTERKQMLEGLRQHFAKD”, the protein production entry was “not failed”.

Consider “MGGKTKKHAMRLFDRIAEKYDLLNRILSFGMDTKWRKRVVELILEVNPEKVLDLATGTGDVARLLKRKAPHLEITGLDSSSKMLEIAEKRLKDGEFIVGDAHNLPFYDRSFDAITVAFGFRNFSDRRRVLRECRRVLKRKGRLVILELLPPNTKRFTGKIYSFYLKTWVPFVGGLFSGDFHAYRYLSTSVLNFLTPDQIVEMMKEEGFEVSFEPLFFSVAGIFIGDLIWLEHHHHHH”, for which the protein production result is given as “failed”.
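Further: failed if final PepcDB status was selected cloned or expressed and not failed if soluble or beyond.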
